Source: patent US20130244938A1 (Stanford University, published 2013)
Where no end group is shown, it is not given here.

T1: LGR7 (leucine-rich repeat-containing GPCR 7) (human) (UniProt Q9HBX9)
T1 sequence (looked up): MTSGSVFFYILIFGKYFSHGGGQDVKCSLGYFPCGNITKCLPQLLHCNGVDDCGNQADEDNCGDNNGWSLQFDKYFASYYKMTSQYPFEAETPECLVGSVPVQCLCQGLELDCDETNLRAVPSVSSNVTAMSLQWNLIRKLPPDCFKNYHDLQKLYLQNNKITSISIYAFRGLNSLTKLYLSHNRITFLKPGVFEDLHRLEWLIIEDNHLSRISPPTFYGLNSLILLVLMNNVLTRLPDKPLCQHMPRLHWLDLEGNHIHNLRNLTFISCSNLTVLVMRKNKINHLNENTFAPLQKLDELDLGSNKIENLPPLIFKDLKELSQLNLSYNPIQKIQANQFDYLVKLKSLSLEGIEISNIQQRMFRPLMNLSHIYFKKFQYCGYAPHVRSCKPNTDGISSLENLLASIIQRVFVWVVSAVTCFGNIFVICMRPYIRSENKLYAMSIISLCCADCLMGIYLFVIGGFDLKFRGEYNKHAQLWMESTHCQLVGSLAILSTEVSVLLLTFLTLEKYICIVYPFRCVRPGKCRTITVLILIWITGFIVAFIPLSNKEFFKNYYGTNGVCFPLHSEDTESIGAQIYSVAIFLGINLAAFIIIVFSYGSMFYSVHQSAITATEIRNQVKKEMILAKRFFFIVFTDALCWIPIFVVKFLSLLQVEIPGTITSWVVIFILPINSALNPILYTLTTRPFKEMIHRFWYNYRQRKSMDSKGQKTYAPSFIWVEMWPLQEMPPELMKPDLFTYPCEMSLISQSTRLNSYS

T2: LGR7 (leucine-rich repeat-containing GPCR 7) (human, UniProt Q9HBX9 1-757)
T2 sequence (looked up): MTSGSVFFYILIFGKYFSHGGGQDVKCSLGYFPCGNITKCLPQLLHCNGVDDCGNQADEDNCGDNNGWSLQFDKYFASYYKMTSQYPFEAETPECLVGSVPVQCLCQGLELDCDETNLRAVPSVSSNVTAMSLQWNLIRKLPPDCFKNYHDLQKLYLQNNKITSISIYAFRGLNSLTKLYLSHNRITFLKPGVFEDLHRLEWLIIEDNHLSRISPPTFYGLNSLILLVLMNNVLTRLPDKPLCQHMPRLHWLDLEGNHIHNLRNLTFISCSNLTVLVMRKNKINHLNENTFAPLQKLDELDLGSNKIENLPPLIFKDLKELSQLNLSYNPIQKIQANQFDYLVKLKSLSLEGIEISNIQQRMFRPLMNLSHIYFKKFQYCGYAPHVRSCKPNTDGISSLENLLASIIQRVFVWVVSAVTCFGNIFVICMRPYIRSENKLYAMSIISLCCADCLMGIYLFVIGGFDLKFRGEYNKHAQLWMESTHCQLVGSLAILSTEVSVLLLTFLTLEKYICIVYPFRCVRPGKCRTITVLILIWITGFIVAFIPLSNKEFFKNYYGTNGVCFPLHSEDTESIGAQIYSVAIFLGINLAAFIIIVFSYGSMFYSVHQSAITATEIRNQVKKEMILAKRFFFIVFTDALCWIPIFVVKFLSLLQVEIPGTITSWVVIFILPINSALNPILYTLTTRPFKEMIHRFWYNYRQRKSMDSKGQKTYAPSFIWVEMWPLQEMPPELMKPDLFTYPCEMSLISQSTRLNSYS


Experiments:
[1] = molecular target: T1, LGR7 (leucine-rich repeat-containing GPCR 7) (human); assay: cell-based or functional assay
[2] = molecular target: T2, LGR7 (leucine-rich repeat-containing …); assay: cell-based or functional assay
[3] = molecular target: T2, LGR7 (leucine-rich repeat-containing …); assay: competition with 125I-RLN2 tracer on LGR7-expressing HEK293T cells
Method: (§1) To determine the binding characteristics of wild type and mutant peptides, HEK293T cells expressing LGR7 or LGR8 were grown to 90% confluence, collected by centrifugation at 3000×g for 2 min, and washed two times in 2 ml of ice-cold binding buffer. Cells were resuspended in ice-cold binding buffer, and aliquots of cell suspension were incubated with increasing doses of purified recombinant peptides in the presence of 0.025 pmol of ¹²⁵I-labeled RLN2 tracer (Phoenix Pharmaceuticals, Burlingame, Calif.) at room temperature for 2 h. After washing three times in an ice-cold binding buffer, radioactivity bound to the cells was measured using a y-counter (EG&G Wallace, Gaithersburg, Md.). Total binding was determined in the absence, and nonspecific binding in the presence, of 25 nmol of unlabeled RLN2. In regular assays, total binding was ˜30,000 cpm, and nonspecific binding amounted to less than 20% of the total binding. Data points were collected in triplicate, and similar results were obtained in at least two independent assays.

[4] = molecular target: T3, LGR8 (leucine-rich repeat-containing GPCR 8) (human, UniProt Q8WXD0 1-754); assay: cell-based or functional assay
T3 sequence (Q8WXD0 whole entry): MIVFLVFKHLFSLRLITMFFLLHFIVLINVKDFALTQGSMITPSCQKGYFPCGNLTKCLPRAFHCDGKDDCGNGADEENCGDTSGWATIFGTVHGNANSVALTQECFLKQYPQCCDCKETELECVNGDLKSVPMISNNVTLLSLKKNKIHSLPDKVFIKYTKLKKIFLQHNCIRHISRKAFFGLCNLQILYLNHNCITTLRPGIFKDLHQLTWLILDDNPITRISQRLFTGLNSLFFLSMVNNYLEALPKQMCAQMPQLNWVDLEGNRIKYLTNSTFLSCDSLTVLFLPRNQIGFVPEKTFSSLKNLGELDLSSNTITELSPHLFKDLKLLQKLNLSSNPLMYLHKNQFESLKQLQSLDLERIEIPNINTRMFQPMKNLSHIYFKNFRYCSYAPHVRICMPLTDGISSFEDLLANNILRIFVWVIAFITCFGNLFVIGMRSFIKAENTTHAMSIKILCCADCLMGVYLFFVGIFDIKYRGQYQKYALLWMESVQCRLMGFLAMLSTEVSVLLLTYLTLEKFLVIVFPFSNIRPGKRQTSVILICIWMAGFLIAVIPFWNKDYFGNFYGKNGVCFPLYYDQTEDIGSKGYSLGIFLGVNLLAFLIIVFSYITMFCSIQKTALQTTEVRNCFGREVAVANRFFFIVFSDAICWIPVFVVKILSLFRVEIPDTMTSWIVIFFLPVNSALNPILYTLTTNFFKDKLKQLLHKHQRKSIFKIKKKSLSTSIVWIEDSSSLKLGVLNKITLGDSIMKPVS

[5] = molecular target: T3, LGR8 (leucine-rich repeat-containing …); assay: competition with 125I-RLN2 tracer on LGR8-expressing HEK293T cells
Method: as §1

[6] = molecular target: T3, LGR8 (leucine-rich repeat-containing …); assay: cell-based or functional assay; remark: listed apart in the source
[7] = molecular target: T3, LGR8 (leucine-rich repeat-containing …); assay: competition with 125I-RLN2 on LGR8-expressing HEK293T cells (Table 2 cell: ND, pIC50 not measurable)
Method: as §1

[8] = molecular target: LGR8 (leucine-rich repeat-containing GPCR 8) (human) (UniProt Q8WXD0); assay: cell-based or functional assay
LGR8 (leucine-rich repeat-containing GPCR 8) (human), sequence (Q8WXD0 whole entry): as above

pEC50, stimulation of cAMP production in LGR7-expressing HEK293T cells [2]	pIC50 [3]	pEC50, stimulation of cAMP production in LGR8-expressing HEK293T cells [4]	pIC50 [5]	Molecule	other results
–	–	–	–	WT RLN2 (His1) (ligand)	pEC50, stimulation of cAMP production in LGR7-expressing HEK293T cells [1]: 8.66
–	–	–	–	WT RLN2 (His2) (ligand)	pEC50, stimulation of cAMP production in LGR7-expressing HEK293T cells [1]: 8.77
6.53	8.78	–	–	Nontagged human RLN2 peptide (ligand, not fully specified (bridges); ends and bridges not checked, Used as a standard; also called Nontagged RLN2; nontagged wild type RLN2 peptide) chain 1: SWMEEVIKLCGRELVRAQIAICGMSTWS chain 2: QLYSALANKCCHVGCTKRSLARFC	–
–	–	–	–	WT RLN3 (recombinant human relaxin 3, Myc- and His6-tagged) (ligand, not shown: small tags and cut ends, not fully specified; ends and bridges not checked; also: N-terminal Myc epitope tag) chain 1: RAAPYGVRLCGREFIRAVIFTCGGSRWHHHHHH chain 2: DVLAGLSSSCCKWGCSKSEISSLC	pEC50, stimulation of cAMP production in LGR7-expressing HEK293T cells [1]: 7.73
9.3	8.72	7.41	7.9	WT RLN2 (recombinant wild type human RLN2, Myc- and His6-tagged) (ligand, not shown: small tags and cut ends, also called wild type RLN2; wild type peptide) chain 1: SWMEEVIKLCGRELVRAQIAICGMSTWSHHHHHH chain 2: QLYSALANKCCHVGCTKRSLARFC	–
10	8.42	7.51	6.8	RLN2 R^A22A (ligand, not shown: small tags and cut ends, not fully specified; ends and bridges not checked; also: N-terminal Myc epitope tag, Construct with the 8-amino acid linker, processed to the mature two-chain form) chain 1: SWMEEVIKLCGRELVRAQIAICGMSTWSHHHHHH chain 2: QLYSALANKCCHVGCTKRSLAAFC	–
9.75	8.4	8.04	7.74	RLN2 T^A16A (ligand, not shown: small tags and cut ends, not fully specified; ends and bridges not checked; also: N-terminal Myc epitope tag, Construct with the 8-amino acid linker, processed to the mature two-chain form) chain 1: SWMEEVIKLCGRELVRAQIAICGMSTWSHHHHHH chain 2: QLYSALANKCCHVGCAKRSLARFC	maximum LGR8-activation activity (cAMP production), against wild type RLN2 [6]: 2 fold
8.56	8.21	8.41	7.51	RLN2^A19-20 (ligand, not shown: small tags and cut ends, It is read here as both residues changed to alanine) chain 1: SWMEEVIKLCGRELVRAQIAICGMSTWSHHHHHH chain 2: QLYSALANKCCHVGCTKRAAARFC	–
9.67	8.42	7.56	7.46	RLN2 R^A18A (ligand, not shown: small tags and cut ends) chain 1: SWMEEVIKLCGRELVRAQIAICGMSTWSHHHHHH chain 2: QLYSALANKCCHVGCTKASLARFC	–
8.87	7.5	–	–	RLN2^A22-23 (ligand, not shown: small tags and cut ends, It is read here as both residues changed to alanine) chain 1: SWMEEVIKLCGRELVRAQIAICGMSTWSHHHHHH chain 2: QLYSALANKCCHVGCTKRSLAAAC	binding result [7]: no binding
–	–	–	–	WT INSL3 (recombinant human insulin-like 3, Myc- and His6-tagged) (ligand, not shown: small tags and cut ends) chain 1: PTPEMREKLCGHHFVRALVRVCGGPRWSTEAHHHHHH chain 2: AAATNPARYCCLSGCTQQDLLTLCPY	pEC50, stimulation of cAMP production in LGR8-expressing HEK293T cells [8]: 9.03
